The record followed here is US20210130436A1.

Experiment [1] has as its target CD28 (human) (UniProt P10747). Nature of the experiment: flow cytometry, Jurkat/IL2 reporter cells (endogenous CD28), 33.3 nM, PE anti-human Fc.
For experiment [2], the target named is human PD-L1 on CHO cells (human) (UniProt Q9NZQ7). Nature of the experiment: cell-based or functional assay.
In experiment [3] the target is CD112R (UniProt Q6DKI7). Nature of the experiment: flow cytometry, protein at 25 nM on cells expressing CD112R. For orientation: Flow cytometry measures light scatter and fluorescence of single cells or particles in a stream.
Target sequence in this assay (Q6DKI7 41-326 limits assumed, form in doubt): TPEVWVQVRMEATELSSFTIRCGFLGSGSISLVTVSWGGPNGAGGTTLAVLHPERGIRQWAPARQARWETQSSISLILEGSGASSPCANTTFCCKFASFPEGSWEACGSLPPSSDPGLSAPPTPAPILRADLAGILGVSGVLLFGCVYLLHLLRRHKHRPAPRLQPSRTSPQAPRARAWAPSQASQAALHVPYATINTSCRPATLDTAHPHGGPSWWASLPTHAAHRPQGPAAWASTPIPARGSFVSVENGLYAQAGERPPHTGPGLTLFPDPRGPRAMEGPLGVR
The target of experiment [4] is CD226 (UniProt Q15762). Nature of the experiment: flow cytometry, protein at 25 nM on cells expressing CD226.
Experiment [5] addresses PD-L1 expressed on CHO/OKT3/PD-L1 artificial antigen presenting cells (human) (UniProt Q9NZQ7). Nature of the experiment: cell-based or functional assay.
The target of experiment [6] is PD-1 (Homo sapiens (Human)) (UniProt Q15116). Nature of the experiment: flow cytometry on Jurkat/PD-1 cells, 50 nM.
Experiment [7] deals with human PD-L1, full-length, expressed on transfected HEK293 (Expi293F) cells (human) (UniProt Q9NZQ7). Description: flow cytometry, Fc control on HEK293 cells transfected with full-length human PD-L1.
The target of experiment [8] is human CTLA4, full-length, expressed on transfected HEK293 (Expi293F) cells (human) (UniProt P16410). Description: flow cytometry, Fc control on HEK293 cells transfected with full-length human CTLA4.
Experiment [9] concerns the target human CD28, full-length, expressed on transfected HEK293 (Expi293F) cells (human) (UniProt P10747). Description: flow cytometry, Fc control on HEK293 cells transfected with full-length human CD28.
In experiment [10] the target is human CD28, endogenous on Jurkat/IL2 reporter cells (human) (UniProt P10747). Description: flow cytometry, Jurkat/IL2 reporter cells (endogenous CD28), PE anti-human Fc.
The target in experiment [11] is human CTLA-4 (human) (UniProt P16410). Description: flow cytometry, CHO cells stably expressing CTLA4.
Experiment [12] deals with T1, TIGIT (UniProt Q495A1).
T1 sequence (looked up): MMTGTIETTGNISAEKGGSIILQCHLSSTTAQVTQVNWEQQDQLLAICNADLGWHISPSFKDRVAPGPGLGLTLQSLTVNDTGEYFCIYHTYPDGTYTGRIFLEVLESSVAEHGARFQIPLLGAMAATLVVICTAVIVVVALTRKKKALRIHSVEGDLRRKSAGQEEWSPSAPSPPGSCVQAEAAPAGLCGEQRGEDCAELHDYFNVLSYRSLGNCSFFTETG
Nature of the experiment: flow cytometry on cells expressing TIGIT, Fc fusion at 100 nM.

The target of experiment [13] is T1, TIGIT. Nature of the experiment: flow cytometry, MFI ratio to wildtype CD155 ECD-Fc, TIGIT cells.
Experiment [14] has as its target PD-L1 (human) (UniProt Q9NZQ7). Description: cell-based or functional assay.
Experiment [15] deals with PD-L1 (human) (UniProt Q9NZQ7). Nature of the experiment: flow cytometry on CHO cells stably expressing PD-L1.
In experiment [16] the target is PD-1 expressed on cells (Homo sapiens (Human)) (UniProt Q15116). Description: flow cytometry; 20 nM Fc fusion on cells expressing PD-1.
In experiment [17] the target is CD112R (UniProt Q6DKI7). Nature of the experiment: flow cytometry on CD112R-expressing cells.
Target sequence in this assay (Q6DKI7 41-326 limits assumed): as the sequence (Q6DKI7 41-326 limits assumed, form in doubt) above
For experiment [18], the target named is human CTLA4 (full-length, expressed on CHO cells) (human) (UniProt P16410). Nature of the experiment: flow cytometry, CHO cells expressing huCTLA4, PE anti-human Fc.
In experiment [19] the target is CD28, endogenously expressed on Jurkat/IL2 reporter cells (human) (UniProt P10747). Nature of the experiment: flow cytometry, Jurkat/IL2 reporter cells (endogenous CD28), PE anti-human Fc.
Experiment [20] shares this target. Nature of the experiment: flow cytometry on Jurkat/IL2 reporter cells (endogenous CD28); PE anti-human Fc.
Experiment [21] deals with PD-L1 (human) (UniProt Q9NZQ7). Nature of the experiment: flow cytometry, CHO cells stably expressing huPD-L1, 33.3 nM, PE anti-human Fc.
For experiment [22], the target named is human CTLA-4 (human) (UniProt P16410). Description: flow cytometry, CHO cells stably expressing huCTLA4, 33.3 nM, PE anti-human Fc.
Experiment [23] addresses CD28, endogenously expressed on Jurkat/IL2 reporter cells (human) (UniProt P10747). Description: flow cytometry, Jurkat/IL2 reporter cells (endogenous CD28).
The target in experiment [24] is human CTLA4 (huCTLA4), full-length, stably expressed on CHO cells (human) (UniProt P16410). Nature of the experiment: flow cytometry, CHO cells expressing huCTLA4.
In experiment [25] the target is PD-L1 (human) (UniProt Q9NZQ7). Description: flow cytometry, CHO cells stably expressing PD-L1.
For experiment [26], the target named is human CTLA4, full-length, expressed on transfected HEK293 (Expi293F) cells (human) (UniProt P16410). Nature of the experiment: flow cytometry, Fc fusion on HEK293 cells transfected with full-length human CTLA4.
Experiment [27] addresses T2, CD96 (UniProt P40200).
T2 sequence (looked up): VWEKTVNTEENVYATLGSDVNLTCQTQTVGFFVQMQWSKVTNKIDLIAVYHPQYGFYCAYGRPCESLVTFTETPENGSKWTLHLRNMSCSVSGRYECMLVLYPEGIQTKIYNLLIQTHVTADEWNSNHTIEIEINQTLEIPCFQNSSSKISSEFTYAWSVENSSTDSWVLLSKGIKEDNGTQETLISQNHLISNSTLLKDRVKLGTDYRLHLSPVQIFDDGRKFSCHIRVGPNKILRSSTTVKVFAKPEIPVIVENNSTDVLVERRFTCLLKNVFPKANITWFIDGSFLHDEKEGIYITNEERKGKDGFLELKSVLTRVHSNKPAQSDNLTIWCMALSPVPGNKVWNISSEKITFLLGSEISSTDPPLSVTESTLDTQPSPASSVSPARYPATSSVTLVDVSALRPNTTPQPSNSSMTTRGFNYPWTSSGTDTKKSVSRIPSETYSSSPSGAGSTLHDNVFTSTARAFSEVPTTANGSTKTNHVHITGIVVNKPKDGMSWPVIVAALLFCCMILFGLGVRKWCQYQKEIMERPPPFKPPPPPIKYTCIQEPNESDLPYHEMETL
Nature of the experiment: flow cytometry on cells expressing the target, 20 nM Fc fusion.

Experiment [28] concerns the target human CTLA-4, full-length, on transduced CHO cells (human) (UniProt P16410). Description: flow cytometry, CHO cells expressing huCTLA4, PE anti-human Fc.
Experiment [29] deals with CD80 expressed on cells (human) (UniProt P33681). Description: flow cytometry; 20 nM protein on cells expressing CD80.
For experiment [30], the target named is PD-1 expressed on cells (Homo sapiens (Human)) (UniProt Q15116). Nature of the experiment: flow cytometry; 20 nM protein on cells expressing PD-1.

Values joined by “and” are separate entries in the source; they are usually repeats but may differ in a detail not shown here. Equal entries are not always repeated.

human CTLA-4 (human), sequence (P16410 36-223): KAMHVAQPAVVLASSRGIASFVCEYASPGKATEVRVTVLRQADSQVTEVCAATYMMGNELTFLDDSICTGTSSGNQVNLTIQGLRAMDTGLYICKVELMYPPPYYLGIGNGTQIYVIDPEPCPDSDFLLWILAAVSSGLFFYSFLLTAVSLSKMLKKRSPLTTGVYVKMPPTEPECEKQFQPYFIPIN
human CTLA4, full-length, expressed on transfected HEK293 (Expi293F) cells (human), sequence (P16410 36-223): as above
human CTLA4 (full-length, expressed on CHO cells) (human), sequence (P16410 36-223): as above
PD-1 (Homo sapiens (Human)), sequence (Q15116 21-288): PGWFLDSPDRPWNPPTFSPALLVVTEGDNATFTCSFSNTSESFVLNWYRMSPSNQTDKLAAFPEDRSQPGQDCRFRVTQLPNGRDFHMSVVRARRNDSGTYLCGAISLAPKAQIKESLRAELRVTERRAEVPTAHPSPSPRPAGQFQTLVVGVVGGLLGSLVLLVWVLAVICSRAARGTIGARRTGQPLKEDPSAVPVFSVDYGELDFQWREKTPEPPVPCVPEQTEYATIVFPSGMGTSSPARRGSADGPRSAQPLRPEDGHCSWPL
PD-1 expressed on cells (Homo sapiens (Human)), sequence (Q15116 21-288): as above
human CTLA-4, full-length, on transduced CHO cells (human), sequence (P16410 36-223): as the sequence (P16410 36-223) above
human CTLA4 (huCTLA4), full-length, stably expressed on CHO cells (human), sequence (P16410 36-223): as above
CD226, sequence (Q15762 19-336): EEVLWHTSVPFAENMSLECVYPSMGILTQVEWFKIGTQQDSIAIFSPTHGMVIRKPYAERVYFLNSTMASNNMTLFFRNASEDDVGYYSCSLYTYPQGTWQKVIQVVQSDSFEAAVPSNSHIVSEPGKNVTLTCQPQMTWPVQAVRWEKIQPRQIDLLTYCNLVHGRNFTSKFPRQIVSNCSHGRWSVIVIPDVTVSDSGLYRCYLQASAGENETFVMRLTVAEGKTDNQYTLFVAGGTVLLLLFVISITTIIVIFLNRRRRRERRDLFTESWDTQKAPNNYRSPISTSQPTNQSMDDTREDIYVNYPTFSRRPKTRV

Regarding “E35D/D46E/M47L/V68M/L85Q/F92L CD80 IgV-Fc (from UniProt P33681 35-141) (Fc fusion)”, the MFI at 33.3 nM in experiment [1] worked out at 15 MFI.

Take “variant CD80 IgV-Fc deltaE10-A98 (Fc fusion)”: in [2], the Fold Increase over WT CD80-IgV-Fc came out at 0.3 fold and the Jurkat/IL2 + CHO/OKT3/PD-L1 Reporter Assay: Relative Luciferase Units (RLU), CD80-Fc Conc 5.0 nM was 137 RLU.

Turning to “CD112-IgV (from UniProt Q92692 32-158) (Fc fusion)”, the MFI at 25 nM was found to be 17800 MFI in experiment [3] and 824 MFI in [4].

As to “Fc1.1 Control (from UniProt P0DOX5 218-448)”, the Relative Luciferase Units (RLU), Jurkat/IL2 + CHO/OKT3/PD-L1 reporter assay, CD80 Conc 5.0 nM in experiment [5] stood at 97 RLU.

Take “PD-L1 A33D/S75P IgV-Fc (first entry) (from UniProt Q9NZQ7 19-132) (Fc fusion)”: in experiment [6], the Fold increase over wildtype PD-L1 IgV-Fc amounted to 0.1 fold and the MFI at 50 nM stood at 306.

As for Fc only, in experiment [7], the MFI at 22.2 nM is 4740 MFI. In addition, the MFI at 66.6 nM is 5960 MFI in experiment [8] and 2590 MFI in experiment [9].

On to “variant CD80 IgV-Fc E35D/K37E/M47V/N48D/L85Q/D90N (from UniProt P33681 35-141) (Fc fusion)”, for which the MFI at 33.3 nM in experiment [10] amounted to 1590 MFI.

Regarding “CD80 IgV-Fc T13R/Q33R/E35D/M38I/M47L/V68M (from UniProt P33681 35-141) (Fc fusion)”, the MFI at 33.3 nM in experiment [11] worked out at 193 MFI.

Turning to “Wildtype (CD155 entry without mutations among the variant rows of Table 20B) (from UniProt P15151 21-142) (Fc fusion)”, the MFI at 100 nM in [12] is 1960 MFI and 2180 MFI. Moreover, the Fold ↑ to WT ECD in [13] amounted to 0 fold.

With “wild-type CD80 ECD-Fc (inert), Example 15 (from UniProt P33681 35-242) (Fc fusion)”, in [14], the RLU, Jurkat/IL2 + CHO/OKT3/PD-L1 Reporter Assay, CD80 Conc 5.0 nM came to 159 RLU. This substance also came in with an MFI at 33.3 nM in experiment [15] of 161 MFI.

As to “variant PD-L1 G15A/I36T/V129D/R195G Fc fusion (from UniProt Q9NZQ7 19-238)”, the MFI at 20 nM in [16] is 125 MFI.

On to “variant CD112 IgV-Fc R12W/A46T/K66M/Q79R/N106I/T113A/S118F (from UniProt Q92692 32-158) (Fc fusion)”, for which the MFI at 100 nM in experiment [17] worked out at 1660 MFI.

In the case of “variant CD80 IgV-Fc E35D/D46E/M47V/N63D/L85Q (from UniProt P33681 35-141) (Fc fusion)”, the MFI at 33.3 nM in experiment [10] amounted to 1330 MFI.

In turn, “variant CD80 IgV-Fc Q33L/E35D/T41S/M47V (from UniProt P33681 35-141) (Fc fusion)” gave an MFI at 33.3 nM in experiment [18] of 14500 MFI.

As for “variant CD80 IgV-Fc E35D/M47L/A71G/L85Q (from UniProt P33681 35-141) (Fc fusion)”, the MFI at 33.3 nM in experiment [10] turned out to be 1440 MFI.

“variant CD80 IgV-Fc Q33L/E35D/T41S/M43I (from UniProt P33681 35-141) (Fc fusion)” yielded an MFI at 33.3 nM in experiment [19] of 433 MFI.

In [20], “variant CD80 IgV-Fc E35D/M42V/M47V/E52D/L85Q (from UniProt P33681 35-141) (Fc fusion)” came in with an MFI at 33.3 nM of 1290 MFI.

In the case of deltaE10-A98 CD80 IgV-Fc (Fc fusion), the MFI at 33.3 nM in experiment [21] was determined as 45 MFI; in experiment [22], 125 MFI; in [1] it was 15 MFI.

In the case of “variant CD80 IgV-Fc H18Y/E35D/M38I/M47L/V68M/L85M (from UniProt P33681 35-141) (Fc fusion)”, the MFI at 33.3 nM in [23] is 16.7 MFI; in experiment [24], 139 MFI.

As for “WT CD80 ECD-Fc (from UniProt P33681 35-242) (Fc fusion)”, the MFI at 33.3 nM in experiment [21] is 68 MFI; in experiment [25], 52 MFI. In experiment [14], the Jurkat/IL2 + CHO/OKT3/PD-L1 reporter assay, RLU at CD80 Conc 5.0 nM was 521 RLU.

In turn, “variant CD80 IgV-Fc E35D/Y53H/A71G/D90G/L97R (from UniProt P33681 35-141) (Fc fusion)” gave an MFI at 33.3 nM in experiment [20] of 1550 MFI.

In the case of “variant CD80 IgV-Fc Q33L/E35D/M43I/Y53F/T62S/L85Q (from UniProt P33681 35-141) (Fc fusion)”, the MFI at 33.3 nM in experiment [20] was determined as 1024 MFI.

As to “variant CD80 IgV-Fc K36R/G78A (from UniProt P33681 35-141) (Fc fusion)”, the MFI at 66.6 nM in experiment [26] turned out to be 11900 MFI.

Regarding “CD112 A112V IgV-Fc (from UniProt Q92692 32-158) (Fc fusion)”, in experiment [27], the MFI at 20 nM is 1210 MFI and 1180 MFI.

“variant CD80 IgV-Fc R29H/E35D/M43V/M47I/I49V (from UniProt P33681 35-141) (Fc fusion)”: the MFI at 33.3 nM in experiment [28] was determined as 4690 MFI.

“variant CD80 IgV-Fc H18L/V22A/E35D/M47L/N48T/L85Q (from UniProt P33681 35-141) (Fc fusion)” showed an MFI at 33.3 nM in experiment [19] of 434 MFI.

Consider “variant CD80 IgV-Fc E35D/M47I/K54R/L85E (from UniProt P33681 35-141) (Fc fusion)”, for which the MFI at 33.3 nM in experiment [18] was 8660 MFI.

On to Fc Control, for which the results for the MFI at 20 nM in [29] and in [30] were 132 MFI and 59 MFI, respectively.
